Laboratory results reported in patent WO2000069914A2.

Target: recombinant Epithelial Glycoprotein-2 (EGP-2), baculovirus-expressed, purified (human) (UniProt P16422)
Test: SPR (BIAcore), scFv over amine-coupled recombinant EGP-2

Sequence of UniProt P16422 (P16422 24-265 limits assumed): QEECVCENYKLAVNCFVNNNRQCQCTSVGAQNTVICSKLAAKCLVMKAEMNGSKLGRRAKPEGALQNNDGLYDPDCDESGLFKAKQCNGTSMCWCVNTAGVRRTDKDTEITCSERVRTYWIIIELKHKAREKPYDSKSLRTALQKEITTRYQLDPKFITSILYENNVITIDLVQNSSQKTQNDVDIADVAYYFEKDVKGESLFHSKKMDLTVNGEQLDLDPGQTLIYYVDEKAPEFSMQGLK

## scFv MOC-31
  koff: 0.00034 s⁻¹
